In US20040038369A1, “Airway-specific trypsin-like enzymes and method of using the same” (priority 2000, published 2004):

Assays:
[1] = molecular target: T1, PAR-1 (Homo sapiens, UniProt P25116); experiment: Calcium influx in PAR-1-expressing insect cells; format: cell-based; settings: AST 2 units/mL; trypsin, thrombin 0.1 to 10 units/mL; SFLLRNamide 10 to 100 μM
T1 construct: expressed in transfected cells; host or cells: Sf9 insect cells infected with recombinant baculovirus VL-PAR (pVL1393)
T1 sequence (P25116 22-425): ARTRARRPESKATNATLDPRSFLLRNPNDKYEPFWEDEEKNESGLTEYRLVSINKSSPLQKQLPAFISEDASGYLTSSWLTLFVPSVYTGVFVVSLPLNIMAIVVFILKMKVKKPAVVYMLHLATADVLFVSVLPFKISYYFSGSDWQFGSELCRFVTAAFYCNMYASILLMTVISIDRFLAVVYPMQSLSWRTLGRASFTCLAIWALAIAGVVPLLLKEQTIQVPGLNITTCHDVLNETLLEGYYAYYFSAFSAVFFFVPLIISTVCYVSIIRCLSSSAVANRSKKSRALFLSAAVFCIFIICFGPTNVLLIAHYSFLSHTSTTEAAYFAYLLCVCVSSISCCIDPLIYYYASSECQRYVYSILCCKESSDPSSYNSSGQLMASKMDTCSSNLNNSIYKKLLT
Protocol: The above-obtained recombinant baculovirus VL-PAR for expressing the PAR was used to infect 1.0×10^7 Sf9 cells sowed on a 75 cm^2 flask at an MOI=2, and was then left and stationally cultured at 27° C. for 40 hours. After the culture, the infected cells were recovered and then subjected to a calcium influx experiment to-confirm the function of the PAR.
The recovered infected cells (about 5×10^6 cells) were once washed with HEPES-Tyrode buffer solution-Ca^2+ (−) pH 7.4, and then suspended in 5 mL of HEPES-Tyrode buffer solution (containing Fura2-AM, 1 μg/mL) to load the Fura2-AM on the cells at 27° C. for 30 minutes. The suspension was centrifuged at 800 rpm at room temperature for 5 minutes to recover the cells. The cells were twice washed with HEPES-Tyrode buffer solution-Ca^2+ (−) pH 7.4 and then resuspended in 5 mL of HEPES-Tyrode buffer solution-Ca^2+ (−) pH 7.4. The cell suspension was mixed with 5 μL of 1M CaCl2 to give a final concentration of 1 mM CaCl2, and then incubated in a shaded state at room temperature for 5 minutes. The prepared Fura2-AM-loaded infected cells were dispensed into a 96 well plate in a volume of 100 μL/well, further subjected to the dispensation of HEPES-Tyrode buffer solution-C^2+ (+) pH 7.4 in a volume of 80 μL/well, and then assayed with a Fluorescence Drug Screening System (made by Hamamatsu Photonics Co.). Namely, [intensity of 500 nm fluorescent light due to 340 nm exciting light]/[intensity of 500 nm fluorescent light due to 380 nm exciting light] (reflecting the concentration of calcium in the cells) was assayed.

[2] = test system: Muc5AC mRNA in NCI-H292 cells; experiment: Muc5AC mRNA expression in NCI-H292 by real time PCR; format: cell-based, human; settings: HAST 300 mU/mL, 24 hours
Protocol: NCI-H292 cells (purchased from ATCC) were suspended in 10% FCS-containing RPMI-1640 (produced by Gibco Corp.), sowed on a 96 well plate (produced by Falcon Corp.) in a density of 6.0×10^4 cells/cm^2, cultured for 72 hours, subjected to the replacement of the culture solution by RPMI-1640 containing 0.1% of BSA, and further cultured for 24 hours.
Before added to the cells, leupeptin in various concentrations was reacted with 300 mU/mL of HAST on ice for 30 minutes, and further heated at 37° C. Then, the culture solution in the wells was wholly exchanged by the culture medium containing the HAST or leupeptin to start the treatment, and the treatment was carried out for 24 hours. HAST (300 mU/mL) thermally treated at 99° C. for 10 minutes as a control, EGF alone (1 ng/mL), and a combination of EGF (5 ng/mL) with leupeptin (10^−5 M) were also similarly treated. The number of the samples was 3.
An EGF treatment sample was continuously diluted five times to prepare a standard. […]
(§1) For both the Muc5AC and the β-actin, the expression quantities of the samples were relatively compared from the obtained Ct values and the standard straight line. […]
as §1

HAST: human airway-specific trypsin-like enzyme; propeptide moiety bound to trypsin-like protein moiety via a disulfide bond
Ca2+ influx [1]: observed | Muc5AC gene expression [2]: promoted
